Reference: the supplement of paper PMC9112550, “Optimization of the antimicrobial peptide Bac7 by deep mutational scanning” (BMC Biology, 2022)

Test system: Escherichia coli TOP10
Assay: shrunken log2 fold change of peptide-encoding DNA abundance (4.5 h post-induction vs induction); higher = less antimicrobial activity (less host growth inhibition)
Conditions: time post-induction: 4.5 h; library: site-saturation at positions 5, 18, 19, 20
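Note: peptides expressed intracellularly from a pBAD plasmid library in pooled LB shake-flask culture, induced with 0.3% L-arabinose, DNA abundance read by NGS, three biological replicates, DESeq2 with apeglm shrinkage.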

Row | Sequence | shrunken log2 fold change
1 | RRIRHRPPRLPRPRPRPQYAPRP | -0.00149
2 | RRIRMRPPRLPRPRPRPIMRPRP | 0.537
3 | RRIRYRPPRLPRPRPRPWQNPRP | -0.103
4 | RRIRSRPPRLPRPRPRPNSTPRP | -0.573
5 | RRIRNRPPRLPRPRPRPWHMPRP | -0.0135
6 | RRIRMRPPRLPRPRPRPHNCPRP | -0.0504
7 | RRIRLRPPRLPRPRPRPKFLPRP | -0.173
8 | RRIRSRPPRLPRPRPRPATWPRP | -0.136
9 | RRIRGRPPRLPRPRPRPPSQPRP | 0.882
10 | RRIRARPPRLPRPRPRPITEPRP | -0.38
11 | RRIRRRPPRLPRPRPRPAMKPRP | 0.373
12 | RRIRWRPPRLPRPRPRPSPRPRP | 0.299
13 | RRIRRRPPRLPRPRPRPDSDPRP | 0.021
14 | RRIRGRPPRLPRPRPRPTAMPRP | 2.78
15 | RRIRGRPPRLPRPRPRPWFEPRP | -0.111
16 | RRIRDRPPRLPRPRPRPNDNPRP | -0.563
17 | RRIRIRPPRLPRPRPRPFGTPRP | -0.109
18 | RRIRQRPPRLPRPRPRPPNEPRP | 0.266
19 | RRIRLRPPRLPRPRPRPIYKPRP | -0.489
20 | RRIRIRPPRLPRPRPRPMTSPRP | -0.0513
21 | RRIRRRPPRLPRPRPRPKNRPRP | -0.0177
22 | RRIRTRPPRLPRPRPRPPTSPRP | 0.345
23 | RRIRSRPPRLPRPRPRPHKMPRP | -0.156
24 | RRIRKRPPRLPRPRPRPDQEPRP | 0.0193
25 | RRIRERPPRLPRPRPRPFPRPRP | 0.087

Row | Sequence | shrunken log2 fold change
26 | RRIRERPPRLPRPRPRPMIWPRP | -0.21
27 | RRIRKRPPRLPRPRPRPDIMPRP | 1.57
28 | RRIRCRPPRLPRPRPRPHLWPRP | 0.129
29 | RRIRPRPPRLPRPRPRPADAPRP | 0.29
30 | RRIRWRPPRLPRPRPRPKFGPRP | 0.206
31 | RRIRQRPPRLPRPRPRPFWNPRP | -0.00884
32 | RRIRPRPPRLPRPRPRPYYEPRP | -0.321
33 | RRIRRRPPRLPRPRPRPLCMPRP | -0.126
34 | RRIRHRPPRLPRPRPRPCPLPRP | -0.667
35 | RRIRGRPPRLPRPRPRPKDPPRP | 0.517
36 | RRIRCRPPRLPRPRPRPTLAPRP | 0.645
37 | RRIRVRPPRLPRPRPRPTYQPRP | -0.388
38 | RRIRFRPPRLPRPRPRPHHWPRP | -0.499
39 | RRIRPRPPRLPRPRPRPHCHPRP | -0.0394
40 | RRIRKRPPRLPRPRPRPWNCPRP | 0.0387
41 | RRIRERPPRLPRPRPRPLKFPRP | -0.377
42 | RRIRNRPPRLPRPRPRPWSFPRP | -0.538
43 | RRIRRRPPRLPRPRPRPMCFPRP | -0.0162
44 | RRIRVRPPRLPRPRPRPRWDPRP | 0.193
45 | RRIRFRPPRLPRPRPRPYATPRP | -0.419
46 | RRIRFRPPRLPRPRPRPNTPPRP | -0.263
47 | RRIRHRPPRLPRPRPRPRYHPRP | -0.315
48 | RRIRRRPPRLPRPRPRPHSLPRP | -0.113
49 | RRIRTRPPRLPRPRPRPMWTPRP | -0.00193
50 | RRIRNRPPRLPRPRPRPYSMPRP | -0.292

Row | Sequence | shrunken log2 fold change
51 | RRIRFRPPRLPRPRPRPFNQPRP | -0.161
52 | RRIRCRPPRLPRPRPRPTEKPRP | -0.293
53 | RRIRRRPPRLPRPRPRPEAGPRP | 0.731
54 | RRIRSRPPRLPRPRPRPQFTPRP | -0.714
55 | RRIRVRPPRLPRPRPRPFAWPRP | 0.384
56 | RRIRKRPPRLPRPRPRPDMWPRP | 0.245
57 | RRIRIRPPRLPRPRPRPWNPPRP | -0.106
58 | RRIRCRPPRLPRPRPRPRLTPRP | 0.0689
59 | RRIRLRPPRLPRPRPRPPFFPRP | 0.14
60 | RRIRERPPRLPRPRPRPLTAPRP | -0.286
61 | RRIRRRPPRLPRPRPRPIEGPRP | 0.0101
62 | RRIRGRPPRLPRPRPRPESSPRP | 1.26
63 | RRIRDRPPRLPRPRPRPFVMPRP | 0.0243
64 | RRIRDRPPRLPRPRPRPDWQPRP | 0.252
65 | RRIRMRPPRLPRPRPRPTPDPRP | 1.39
66 | RRIRSRPPRLPRPRPRPVITPRP | -0.0353
67 | RRIRNRPPRLPRPRPRPIGRPRP | -0.0141
68 | RRIRWRPPRLPRPRPRPFKLPRP | -0.044
69 | RRIRFRPPRLPRPRPRPAELPRP | 0.281
70 | RRIRNRPPRLPRPRPRPVKDPRP | -0.01
71 | RRIRVRPPRLPRPRPRPCCWPRP | -0.087
72 | RRIRMRPPRLPRPRPRPCRQPRP | 0.0303
73 | RRIRRRPPRLPRPRPRPWTLPRP | -0.195
74 | RRIRARPPRLPRPRPRPTIRPRP | 0.109
75 | RRIRLRPPRLPRPRPRPGHDPRP | 0.147

Row | Sequence | shrunken log2 fold change
76 | RRIRIRPPRLPRPRPRPFGMPRP | -0.498
77 | RRIRFRPPRLPRPRPRPPPDPRP | 1.3
78 | RRIRVRPPRLPRPRPRPHTVPRP | -0.448
79 | RRIRPRPPRLPRPRPRPGEEPRP | 0.359
80 | RRIRERPPRLPRPRPRPEHAPRP | -0.0115
81 | RRIRMRPPRLPRPRPRPIAAPRP | 2.71
82 | RRIRERPPRLPRPRPRPFCFPRP | -0.106
83 | RRIRYRPPRLPRPRPRPLFTPRP | -0.962
84 | RRIRGRPPRLPRPRPRPVTCPRP | 0.146
85 | RRIRARPPRLPRPRPRPAIQPRP | 0.228
86 | RRIRMRPPRLPRPRPRPRMIPRP | -0.0577
87 | RRIRGRPPRLPRPRPRPEYGPRP | -0.0112
88 | RRIRKRPPRLPRPRPRPRRFPRP | 0.39
89 | RRIRYRPPRLPRPRPRPYNVPRP | -0.0198
90 | RRIRPRPPRLPRPRPRPFACPRP | -0.0209
91 | RRIRTRPPRLPRPRPRPYVEPRP | -1.12
92 | RRIRCRPPRLPRPRPRPMGHPRP | -0.262
93 | RRIRLRPPRLPRPRPRPLCDPRP | -0.284
94 | RRIRQRPPRLPRPRPRPYPHPRP | -0.0795
95 | RRIRWRPPRLPRPRPRPYKEPRP | -0.387
96 | RRIRYRPPRLPRPRPRPKNCPRP | -0.0167
97 | RRIRERPPRLPRPRPRPCVVPRP | 0.0441
98 | RRIRWRPPRLPRPRPRPYHYPRP | 0.0463
99 | RRIRHRPPRLPRPRPRPSLSPRP | -0.619
100 | RRIRARPPRLPRPRPRPRRYPRP | 0.255

Row | Sequence | shrunken log2 fold change
101 | RRIRNRPPRLPRPRPRPQGDPRP | 4.25
102 | RRIRDRPPRLPRPRPRPKCIPRP | -0.318
103 | RRIRVRPPRLPRPRPRPGYFPRP | -0.366
104 | RRIRERPPRLPRPRPRPTKYPRP | -0.568
105 | RRIRPRPPRLPRPRPRPCCMPRP | -0.144
106 | RRIRPRPPRLPRPRPRPAVKPRP | 0.171
107 | RRIRYRPPRLPRPRPRPHVHPRP | -0.00398
108 | RRIRYRPPRLPRPRPRPQVYPRP | -0.169
109 | RRIRSRPPRLPRPRPRPKTQPRP | -0.0511
110 | RRIRMRPPRLPRPRPRPRHAPRP | 0.698
111 | RRIRGRPPRLPRPRPRPREAPRP | 1.31
112 | RRIRSRPPRLPRPRPRPSMRPRP | 0.369
113 | RRIRMRPPRLPRPRPRPTCLPRP | 0.413
114 | RRIRARPPRLPRPRPRPTWIPRP | 0.291
115 | RRIRTRPPRLPRPRPRPMLWPRP | 0.143
116 | RRIRFRPPRLPRPRPRPRFCPRP | 0.00666
117 | RRIRDRPPRLPRPRPRPKYCPRP | -0.0392
118 | RRIRKRPPRLPRPRPRPRWFPRP | 0.295
119 | RRIRFRPPRLPRPRPRPWRWPRP | 0.0911
120 | RRIRKRPPRLPRPRPRPQSFPRP | 0.327
121 | RRIRERPPRLPRPRPRPWCEPRP | -0.349
122 | RRIRWRPPRLPRPRPRPDQLPRP | 0.066
123 | RRIRFRPPRLPRPRPRPNCAPRP | 0.154
124 | RRIRQRPPRLPRPRPRPPEGPRP | 0.228
125 | RRIRNRPPRLPRPRPRPQKEPRP | -0.0193

Row | Sequence | shrunken log2 fold change
126 | RRIRMRPPRLPRPRPRPSGQPRP | 0.602
127 | RRIRNRPPRLPRPRPRPCENPRP | -0.0018
128 | RRIRWRPPRLPRPRPRPQADPRP | -0.104
129 | RRIRHRPPRLPRPRPRPMWNPRP | -0.0721
130 | RRIRLRPPRLPRPRPRPWMFPRP | -0.108
131 | RRIRFRPPRLPRPRPRPDIWPRP | -0.273
132 | RRIRSRPPRLPRPRPRPPPLPRP | 0.739
133 | RRIRWRPPRLPRPRPRPHDIPRP | 0.00165
134 | RRIRMRPPRLPRPRPRPVTWPRP | 0.216
135 | RRIRIRPPRLPRPRPRPRAIPRP | -0.356
136 | RRIRRRPPRLPRPRPRPPEMPRP | 0.66
137 | RRIRVRPPRLPRPRPRPEPLPRP | 0.204
138 | RRIRWRPPRLPRPRPRPNYGPRP | -0.281
139 | RRIRERPPRLPRPRPRPRENPRP | -0.362
140 | RRIRQRPPRLPRPRPRPTQMPRP | 0.0693
141 | RRIRARPPRLPRPRPRPKERPRP | 0.415
142 | RRIRIRPPRLPRPRPRPKVQPRP | -0.491
143 | RRIRPRPPRLPRPRPRPKAQPRP | -0.155
144 | RRIRMRPPRLPRPRPRPICLPRP | -0.322
145 | RRIRCRPPRLPRPRPRPFREPRP | -0.386
146 | RRIRGRPPRLPRPRPRPLHKPRP | 0.714
147 | RRIRIRPPRLPRPRPRPCLDPRP | -0.0653
148 | RRIRHRPPRLPRPRPRPMADPRP | 0.0417
149 | RRIRARPPRLPRPRPRPYVYPRP | -0.182
150 | RRIRTRPPRLPRPRPRPMTVPRP | -0.294
